Data: patent US20080153132

Target: prothrombin, P00734

B1: genetic recombinant ecarin (protein)
chain: IILGSGNVNDYEVVYPQKVTALPKGAVQQPEQKYEDAMQYEFEVKGEPVVLHLEKNKELFSEDYSETHYSSDDREITTNPSVEDHCYYHGRIQNDAESTASISACNGLKGHFKLRGETYFIEPLKIPDSEAHAVYKYENIENEDEAPKMCGVTQDNWESDEPIKKTLGLIVPPHERKFEKKFIELVVVVDHSMVTKYNNDSTAIRTWIYEMLNTVNEIYLPFNIRVALVGLEFWCNGDLINVTSTADDTLHSFGEWRASDLLNRKRHDHAQLLTNVTLDHSTLGITFVYGMCKSDRSVELILDYSNITFNMAYIIAHEMGHSLGMLHDTKFCTCGAKPCIMFGKESIPPPKEFSSCSYDQYNKYLLKYNPKCILDPPLRKDIASPAVCGNEIWEEGEECDCGSPADCRNPCCDAATCKLKPGAECGNGECCDKCKIRKAGTECRPARDDCDVAEHCTGQSAECPRNEFQRNGQPCLNNSGYCYNGDCPIMLNQCIALFSPSATVAQDSCFQRNLQGSYYGYCTKEIGYYGKRFPCAPQDVKCGRLYCLDNSFKKNMRCKNDYSYADENKGIVEPGTKCEDGKVCINRKCVDVNTAY
N-terminal amino acid sequence of the thrombin B chain after activation: the recombinant ecarin obtained according to the present invention specifically cleaves the peptide bond at the Arg-Ile site in prothrombin like snake venom derived ecarin
activity to cleave S-2238 (thrombin enzymatic activity after 16 hours at 37 C with 2 U/mL recombinant ecarin): the activity to cleave S-2238 was detected in prothrombin when added with the recombinant ecarin
